These results are taken from patent US20100196266A1 (published 2010).

For assay [1], the target named is T1, human CD74 on cells (human, UniProt P04233 1-296).
T1 construct: whole, on cells
T1 sequence (looked up): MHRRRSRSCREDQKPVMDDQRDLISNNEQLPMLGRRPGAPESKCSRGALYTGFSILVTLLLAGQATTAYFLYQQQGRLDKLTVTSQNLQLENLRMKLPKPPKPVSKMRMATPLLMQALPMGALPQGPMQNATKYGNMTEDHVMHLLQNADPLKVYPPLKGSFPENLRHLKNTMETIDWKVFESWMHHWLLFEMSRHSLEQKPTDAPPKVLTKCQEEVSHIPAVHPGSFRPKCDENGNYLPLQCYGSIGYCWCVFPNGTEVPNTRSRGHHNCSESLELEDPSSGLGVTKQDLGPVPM
Put plainly: flow cytometry, Granta-519 (MCL) cells; no mAb 15.3. (In general: A flow cytometer gives signals particle by particle.)

The target of assay [2] is T1, human CD74 on cells. Put plainly: flow cytometry, MEC-1 (CLL) cells; no mAb 4.7.
The target in assay [3] is T1, human CD74 on cells. Put plainly: indirect flow cytometry, Namalwa cells, FITC-GAM; none 2.91.
The target in assay [4] is T1, human CD74 on cells. Put plainly: flow cytometry, Kasumi-3 (AML) cells; no mAb 9.6.
For assay [5], the target named is T1, human CD74 on cells. The assay is described as follows: flow cytometry, Jeko-1 (MCL) cells; no mAb 14.3.
The target in assay [6] is T1, human CD74 on cells. The assay is described as follows: flow cytometry, GDM-1 (AML) cells; no mAb 16.8.
The target in assay [7] is T1, human CD74 on cells. Put plainly: flow cytometry, K562 (CML) cells; no mAb 3.2.
For assay [8], the target named is T1, human CD74 on cells. Put plainly: flow cytometry, RS4;11 (ALL) cells; no mAb 6.4.
For assay [9], the target named is T1, human CD74 on cells. Put plainly: flow cytometry, HC-1 (hairy cell leukemia) cells; no mAb 4.8.
Assay [10] deals with T1, human CD74 on cells. The assay is described as follows: flow cytometry, 697 (ALL) cells; no mAb 4.9.
Assay [11] has as its target T1, human CD74 on cells. The assay is described as follows: flow cytometry, WAC (CLL) cells; no mAb 15.8.
Assay [12] has as its target T1, human CD74 on cells. The assay is described as follows: flow cytometry, MN60 (ALL) cells; no mAb 8.1.
Assay [13] addresses T1, human CD74 on cells. Put plainly: flow cytometry, REH (ALL) cells; no mAb 3.9.
Assay [14] deals with T1, human CD74 on cells. The assay is described as follows: flow cytometry, Kasumi-1 (AML) cells; no mAb 18.2.
Assay [15] has as its target T2, human leukocyte antigen-DR (HLA-DR) on human lymphoma and leukemia cell lines and human lymphocytes (human). Put plainly: flow cytometry, Granta-519 (MCL) cells; no mAb 15.3.
The target in assay [16] is T2, human leukocyte antigen-DR (HLA-DR) on …. Put plainly: flow cytometry, MEC-1 (CLL) cells; no mAb 4.7.
For assay [17] the target is unchanged. Put plainly: indirect flow cytometry, Namalwa cells, FITC-GAM; none 2.91.
The target is the same in assay [18]. The assay is described as follows: flow cytometry, Kasumi-3 (AML) cells; no mAb 9.6.
Assay [19] has the same target. The assay is described as follows: flow cytometry, Jeko-1 (MCL) cells; no mAb 14.3.
The target is the same in assay [20]. Put plainly: flow cytometry, GDM-1 (AML) cells; no mAb 16.8.
The target is the same in assay [21]. Put plainly: flow cytometry, K562 (CML) cells; no mAb 3.2.
Assay [22] shares this target. The assay is described as follows: flow cytometry, RS4;11 (ALL) cells; no mAb 6.4.
The target is the same in assay [23]. The assay is described as follows: flow cytometry, HC-1 (hairy cell leukemia) cells; no mAb 4.8.
Assay [24] has the same target. Put plainly: flow cytometry, 697 (ALL) cells; no mAb 4.9.
The target is the same in assay [25]. Put plainly: flow cytometry, WAC (CLL) cells; no mAb 15.8.
Assay [26] shares this target. Put plainly: flow cytometry, MN60 (ALL) cells; no mAb 8.1.
Assay [27] shares this target. Put plainly: flow cytometry, REH (ALL) cells; no mAb 3.9.
Assay [28] has the same target. The assay is described as follows: flow cytometry, Kasumi-1 (AML) cells; no mAb 18.2.
Assay [29] concerns the target T3, human CD22 on cells (human, UniProt P20273 20-847).
T3 construct: whole, on cells
The assay is described as follows: flow cytometry, Granta-519 (MCL) cells; no mAb 15.3.

For assay [30], the target named is T3, human CD22 on cells. Put plainly: flow cytometry, MEC-1 (CLL) cells; no mAb 4.7.
The target in assay [31] is T3, human CD22 on cells. The assay is described as follows: indirect flow cytometry, Namalwa cells, FITC-GAM; none 2.91.
For assay [32], the target named is T3, human CD22 on cells. Put plainly: flow cytometry, Kasumi-3 (AML) cells; no mAb 9.6.
The target of assay [33] is T3, human CD22 on cells. Put plainly: flow cytometry, Jeko-1 (MCL) cells; no mAb 14.3.
For assay [34], the target named is T3, human CD22 on cells. Put plainly: flow cytometry, GDM-1 (AML) cells; no mAb 16.8.
Assay [35] concerns the target T3, human CD22 on cells. Put plainly: flow cytometry, K562 (CML) cells; no mAb 3.2.
For assay [36], the target named is T3, human CD22 on cells. The assay is described as follows: flow cytometry, RS4;11 (ALL) cells; no mAb 6.4.
Assay [37] has as its target T3, human CD22 on cells. The assay is described as follows: flow cytometry, HC-1 (hairy cell leukemia) cells; no mAb 4.8.
The target of assay [38] is T3, human CD22 on cells. The assay is described as follows: flow cytometry, 697 (ALL) cells; no mAb 4.9.
The target in assay [39] is T3, human CD22 on cells. The assay is described as follows: flow cytometry, WAC (CLL) cells; no mAb 15.8.
The target of assay [40] is T3, human CD22 on cells. The assay is described as follows: flow cytometry, MN60 (ALL) cells; no mAb 8.1.
Assay [41] deals with T3, human CD22 on cells. Put plainly: flow cytometry, REH (ALL) cells; no mAb 3.9.
Assay [42] has as its target T3, human CD22 on cells. Put plainly: flow cytometry, Kasumi-1 (AML) cells; no mAb 18.2.
The target of assay [43] is T4, human CD20 on cells (human, UniProt P11836 1-297).
T4 construct: whole, on cells
T4 sequence (looked up): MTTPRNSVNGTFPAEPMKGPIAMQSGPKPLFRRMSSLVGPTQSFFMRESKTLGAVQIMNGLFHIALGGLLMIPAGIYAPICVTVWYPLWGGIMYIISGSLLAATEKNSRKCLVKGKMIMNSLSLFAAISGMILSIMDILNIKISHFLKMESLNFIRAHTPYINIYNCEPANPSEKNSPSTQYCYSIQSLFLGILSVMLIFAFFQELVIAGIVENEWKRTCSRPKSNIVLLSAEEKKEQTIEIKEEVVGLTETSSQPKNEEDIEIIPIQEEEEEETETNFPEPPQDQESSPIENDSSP
The assay is described as follows: indirect flow cytometry, Namalwa cells, FITC-GAM; none 2.91.

B1: murine LL1 (anti-human CD74) (antibody, V domains shown)
VH: QIQLVQSGPELKKPGETVKVTCKTSGYTFTNYGVNWIKQTPGEGLQWMGWINPNTGEPTFDDDFKGRFAFSLESSASTAFLQISNLKNEDMGTYFCSRSRGKNEAWFAYWGQGTLVTVSE
VL: DVVMTQTPLSLPVSLGDQASISCRSSQSLVHRNGNTYLHWYLQKPGQSPKLLIYTVSNRFSGVPDRFSGSGSGTDFTLKISRVEAEDLGLYFCSQSSHVPPTFGAGTKLEI
On to B1, for which the “mean FL” value in assay [1] came to 50.8; in assay [2], 44.7; in assay [4], 18.4; in [5] it was 32.7; in [6] it was 69.5; in assay [7], 7. The “mean FL” value turned out to be 24.3 in assay [8]; 36.7 in assay [9]; 20.6 in assay [10]; 43.6 in assay [11]; 25.9 in [12]; 61.1 in assay [13]. Besides, in assay [14], the “mean FL” value amounted to 23.8. Moreover, the “GEO MEAN Fluorescence” value in assay [3] turned out to be 17.3.

B2: murine monoclonal antibody L243 (mL243) (antibody, V domains shown)
VH: QIQLVQSGPELKKPGETVKISCKASGFTFTNYGMNWVKQAPGKGLKWMGWINTYTREPTYADDFKGRFAFSLETSASTAYLQINNLKNEDTAKYFCARDITAVVPTGFDYWGQGTTLTVSS
VL: DIQMTQSPASLSVSVGETVTITCRASENIYSNLAWYRQKQGKSPQLLVFAASNLADGVPSRFSGSGSGTQYSLKINSLQSEDFGDYYCQHFWTTPWAFGGGTNLEIKR
notes: Murine IgG2a from hybridoma ATCC HB55; also called murine L243; mL234
With B2, the “mean FL” value in assay [15] was 2110; in assay [16], 1700; in assay [18], 565; in assay [19] it was 1900; in [20] it was 1070; in [21] it was 4.9. Further, the “mean FL” value came to 152 in [22]; 515 in assay [23]; 259 in assay [24]; 788 in assay [25]; 1220 in assay [26]; 2090 in assay [27]. The “mean FL” value in assay [28] was determined as 24. For the same molecule, the “GEO MEAN Fluorescence” value in [17] was 595.

B3: murine LL2 (anti-human CD22) (antibody, V domains shown)
VH: QVQLQESGAELSKPGASVKMSCKASGYTFTSYWLHWIKQRPGQGLEWIGYINPRNDYTEYNQNFKDKATLTADKSSSTAYMQLSSLTSEDSAVYYCARRDITTFYWGQGTTLTVSS
VL: DIQLTQSPSSLAVSAGENVTMSCKSSQSVLYSANHKNYLAWYQQKPGQSPKLLIYWASTRESGVPDRFTGSGSGTDFTLTISRVQVEDLAIYYCHQYLSSWTFGGGTKLEIKR
In the case of B3, the “mean FL” value worked out at 28.6 in assay [29]; 49 in assay [30]; 13.9 in assay [32]; 25 in assay [33]; 28.5 in assay [34]; 4.3 in assay [35]. Also, the “mean FL” value in assay [36] turned out to be 20.9; in assay [37] it was 17.8; in assay [38], 15.9; in assay [39], 20.1; in assay [40] it was 17.1; in assay [41], 16.8. In addition, in [42], the “mean FL” value worked out at 20.9. Moreover, the “GEO MEAN Fluorescence” value in [31] was 10.5.

B4: 1F5 (murine anti-CD20 mAb) (antibody, V domains shown)
VH: QVQLRQPGAELVKPGASVKMSCKASGYTFTSYNMHWVKQTPGQGLEWIGAIYPGNGDTSYNQKFKGKATLTADKSSSTAYMQLSSLTSEDSAVYYCARSHYGSNYVDYFDYWGQGTTLTVSS
VL: DIVLSQSPAILSASPGEKVTMTCRASSSLSFMHWYQQKPGSSPKPWIYATSNLASGVPARFSGSGSGTSYSLTISRVEAEDAATYFCHQWSSNPLTFGAGTKLELK
As for B4, the “GEO MEAN Fluorescence” value in [43] is 3.83.
